Biological target: Filamentous actin (F-actin) (rabbit) (UniProt P68135)
Assay: co-sedimentation; high speed actin binding co-sedimentation: 10 uM Vt variant and 20 uM F-actin in actin polymerization buffer (10 mM Tris, 200 mM KCl, 10 mM imidazole, 2.5 mM MgCl2, 1 mM EGTA, 2 mM DTT, pH 7.5), room temperature 1 hr, 185,000 RCF for 60 min; fraction of Vt in the pellet by SDS-PAGE densitometry

## Vt E1015A (domain or fragment)
  reduction of F-actin binding relative to WT Vt: 2%

## Vt E1021A (domain or fragment)
  reduction of F-actin binding relative to WT Vt: 2%

From PMC9882595
